Test results as given in patent publication US5597569A (priority 1994, dated 1997).
Where two headings read alike, the source gives them in different places.

Experiments:
[1] = system: mice; conditions: for % Survival / LD50: mice; for % Survival: >14 days; for LD50: single dose
[2] = system: mice; conditions: intraperitoneal, literature; cited from earlier work
[3] = system: H3396 cell membranes (BR96 antigen); type: binding, human; conditions: FIG. 10; ELISA, 10 μg/ml H3396 membranes
[4] = system: protein synthesis in rabbit reticulocyte lysate with wheat germ ribosomes; conditions: cited from earlier work
[5] = system: protein synthesis in rabbit reticulocyte lysate
[6] = system: liver; conditions: for liver lesions: histochemical analysis

B1: bryodin 1: type I ribosome-inactivating protein from the root of Bryonia dioica; 29 kDa band identical to the bryodin described by Stirpe (protein)
chain: DVSFRLSGATTTSYGVFIKNLREALPYERKVYNIPLLRSSISGSGRYTLLHLTNYADETISVAVDVTNVYIMGYLAGDVSYFFNEASATEAAKFVFKDAKKKVTLPYSGNYERLQTAAGKIRENIPLGLPALDSAITTLYYYTASSAASALLVLIQSTAESARYKFIEQQIGKRVDKTFLPSLATISLENNWSALSKQIQIASTNNGQFESPVVLIDGNNQRVSITNASARVVTSNIALLLNRNNIA
% Survival ([1]; i.p., 10 mg/kg): 100%
% Survival ([1]; i.p., 12 mg/kg): 100%
% Survival ([1]; i.p., 14 mg/kg): 100%
% Survival ([1]; i.p., 16 mg/kg): 100%
% Survival ([1]; i.v., 12 mg/kg): 100%
% Survival ([1]; i.v., 16 mg/kg): 100%
% Survival ([1]; i.v., 18 mg/kg): 100%
% Survival ([1]; i.v., 20 mg/kg): 100%
LD50 [2]: 14.5 mg/kg
binding to H3396 membranes [3]: no detectable binding
ID50, inhibition of protein synthesis [4]: 3.6 ng/mL

B2: bryodin 2: novel type I ribosome-inactivating protein of about 27,000 daltons isolated from the roots of Bryonia dioica (SEQ ID NO: 15) (protein)
chain: MRSIGFYSVLALYVGAHVTEDVDINFSLIGATGATYKTFIRNLRTKLTVGTPRVYDIPVLRNAAAGLARFQLVTLTNYNGESVTVALDVVNVYVVAYRAGNTAYFLADASTEANNVLFAGINHVRLPYGGNYDGLETAAGRISRENIELGFSEISSAIGNMFRHNPGTSVPRAFIVIIQTVSEAARFKYIEQRVSENVGTKFKPDPAFLSLQNAWGSLSEQIQIAQTRGGEFARPVELRTVSNTPTFVTNVNSPVVKGIALLLYFRVNVGTDNVFAMSLSTY
toxicity to mice relative to bryodin 1 ([1]; i.p. and i.v.): slightly more toxic to mice than bryodin 1
% Survival ([1]; i.p., 7 mg/kg): 100%
% Survival ([1]; i.p., 8 mg/kg): 50%
% Survival ([1]; i.p., 10 mg/kg): 0%
% Survival ([1]; i.p., 12 mg/kg): 0%
% Survival ([1]; i.v., 5 mg/kg): 100%
% Survival ([1]; i.v., 6 mg/kg): 100%
% Survival ([1]; i.v., 7 mg/kg): 100%
% Survival ([1]; i.v., 8 mg/kg): 75%
% Survival ([1]; i.v., 10 mg/kg): 75%
% Survival ([1]; i.v., 12 mg/kg): 0%
% Survival ([1]; i.v., 14 mg/kg): 0%
LD50 ([1]; intraperitoneal): 8 mg/kg
LD50 ([1]; intraperitoneal, listed as BD2): about 8 mg/kg
LD50 ([1]; intravenous): greater than 10 mg/kg
binding to H3396 membranes [3]: no detectable binding
EC50 [5]: 0.017 nM
liver protein in blood chemistry screen ([6]; blood chemistry, data not shown): increased liver protein
liver lesions [6]: showed liver lesions
liver lesions ([6]; listed as BD2): presence of liver lesions
SGOT ([6]; injected mice): elevated
SGPT ([6]; injected mice): elevated
cause of death at lethal dose ([6]; necropsy): liver toxicity was the cause of death

B3: gelonin: a type 1 ribosome-inhibiting protein (protein)
chain: GLDTVSFSTKGATYITYVNFLNELRVKLKPEGNSHGIPLLRKKCDDPGKCFVLVALSNDNGQLAEIAIDVTSVYVVGYQVRNRSYFFKDAPDAAYEGLFKNTIKTRLHFGGSYPSLEGEKAYRETTDLGIEPLRIGIKKLDENAIDNYKPTEIASSLLVVIQMVSEAARFTFIENQIRNNFQQRIRPANNTISLENKWGKLSFQIRTSGANGMFSEAVELERANGKKYYVTAVDQVKPKIALLKFVDKDPK
EC50 [5]: 0.049 nM
